This note sets out measurements from paper PMC10686484, “Cas9 is mostly orthogonal to human systems of DNA break sensing and repair”.

One data set concerns the target Cas9 (Streptococcus pyogenes, UniProt Q99ZW2 1-1368). Briefly: EMSA; preformed 1 complex with sgRNA, no Mg2+; reported as apparent Kd (EC50); EMSA: 50 mM Tris-HCl pH 7.5, 100 mM NaCl, 1 mM DTT, 0.1 mg/ml BSA (oligo dsDNA only), 10 mM MgCl2 if indicated (always for plasmid), 4 C, 30 min; 10 nM dsDNA or 10 ng/ul plasmid. As to conditions: protein: recombinant; label: 5'-32P on DNA2 (target strand); guide + blunt 35 bp duplex.

In a further data set the target is Ku antigen (Ku70/80) (human, UniProt P12956;P13010 2-609;2-732). As to the kind of experiment: EMSA; EMSA: 50 mM Tris-HCl pH 7.5, 100 mM NaCl, 1 mM DTT, 0.1 mg/ml BSA (oligo dsDNA only), 10 mM MgCl2 if indicated (always for plasmid), 4 C, 30 min; 10 nM dsDNA or 10 ng/ul plasmid. As to conditions: protein: native; copies: 1;1; label: 5'-32P on DNA2 (target strand); blunt 35 bp. On the technique in general: In EMSA bound probe runs differently from free probe, usually more slowly.

The target in the next data set is PARP1 (human, UniProt P09874 1-1014). As to the kind of experiment: EMSA; no NAD+, no Mg2+; apparent Kd (EC50), from loss of free DNA; EMSA: 50 mM Tris-HCl pH 7.5, 100 mM NaCl, 1 mM DTT, 0.1 mg/ml BSA (oligo dsDNA only), 10 mM MgCl2 if indicated (always for plasmid), 4 C, 30 min; 10 nM dsDNA or 10 ng/ul plasmid. As to conditions: protein: recombinant; label: 5'-32P on DNA2 (target strand); blunt 35 bp.
PARP1, sequence (P09874 whole entry): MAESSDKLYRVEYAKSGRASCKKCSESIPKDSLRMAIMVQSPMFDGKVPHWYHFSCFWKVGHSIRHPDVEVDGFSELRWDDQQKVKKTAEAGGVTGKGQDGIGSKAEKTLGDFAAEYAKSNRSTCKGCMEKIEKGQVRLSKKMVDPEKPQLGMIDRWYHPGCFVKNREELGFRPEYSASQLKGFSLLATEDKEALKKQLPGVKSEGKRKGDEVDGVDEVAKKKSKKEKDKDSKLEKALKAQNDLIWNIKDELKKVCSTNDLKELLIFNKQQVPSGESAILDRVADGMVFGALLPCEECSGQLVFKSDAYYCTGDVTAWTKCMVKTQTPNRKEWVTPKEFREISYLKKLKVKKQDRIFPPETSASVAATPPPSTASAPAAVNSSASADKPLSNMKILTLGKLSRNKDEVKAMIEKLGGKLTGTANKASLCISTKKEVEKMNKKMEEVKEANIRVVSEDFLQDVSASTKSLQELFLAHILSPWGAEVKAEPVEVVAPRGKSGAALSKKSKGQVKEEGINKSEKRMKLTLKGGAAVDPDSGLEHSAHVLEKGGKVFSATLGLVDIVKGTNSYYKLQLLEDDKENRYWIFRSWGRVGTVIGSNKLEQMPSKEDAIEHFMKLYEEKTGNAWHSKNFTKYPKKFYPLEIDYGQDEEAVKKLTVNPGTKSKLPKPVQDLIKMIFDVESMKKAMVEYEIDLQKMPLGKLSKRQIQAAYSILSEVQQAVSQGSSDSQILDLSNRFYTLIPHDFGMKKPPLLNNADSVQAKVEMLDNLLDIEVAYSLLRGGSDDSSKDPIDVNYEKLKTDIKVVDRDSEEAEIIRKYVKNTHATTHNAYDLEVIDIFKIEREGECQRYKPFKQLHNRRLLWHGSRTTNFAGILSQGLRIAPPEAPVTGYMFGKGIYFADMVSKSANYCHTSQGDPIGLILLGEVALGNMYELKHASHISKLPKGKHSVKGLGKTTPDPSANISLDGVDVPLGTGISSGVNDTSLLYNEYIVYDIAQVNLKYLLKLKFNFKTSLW

The next data set deals with PARP2 (murine, UniProt O88554 1-559). Described as above. The note with it: protein: recombinant; label: 5'-32P on DNA2 (target strand); blunt 35 bp.
PARP2, sequence (O88554 whole entry): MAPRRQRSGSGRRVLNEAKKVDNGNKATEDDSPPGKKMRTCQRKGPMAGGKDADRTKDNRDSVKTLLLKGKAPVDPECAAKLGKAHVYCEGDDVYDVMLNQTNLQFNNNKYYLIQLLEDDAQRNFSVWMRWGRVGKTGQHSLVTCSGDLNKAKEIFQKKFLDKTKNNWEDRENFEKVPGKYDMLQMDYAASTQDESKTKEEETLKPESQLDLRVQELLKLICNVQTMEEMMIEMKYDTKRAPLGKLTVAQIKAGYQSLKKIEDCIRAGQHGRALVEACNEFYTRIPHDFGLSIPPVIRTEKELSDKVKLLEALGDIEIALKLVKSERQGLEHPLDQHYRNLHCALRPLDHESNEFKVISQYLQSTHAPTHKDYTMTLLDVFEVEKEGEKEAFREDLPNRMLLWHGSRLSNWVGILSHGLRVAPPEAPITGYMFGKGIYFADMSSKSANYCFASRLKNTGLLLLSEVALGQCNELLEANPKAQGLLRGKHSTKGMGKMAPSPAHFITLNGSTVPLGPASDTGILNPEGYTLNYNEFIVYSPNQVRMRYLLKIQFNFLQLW
Data set [1] has as its target T1, RPA (human, UniProt P27694;P15927;P35244 1-616;1-270;1-121). As to the kind of experiment: EMSA; 10 mM Mg2+; reported as Kd; EMSA: 50 mM Tris-HCl pH 7.5, 100 mM NaCl, 1 mM DTT, 0.1 mg/ml BSA (oligo dsDNA only), 10 mM MgCl2 if indicated (always for plasmid), 4 C, 30 min; 10 nM dsDNA or 10 ng/ul plasmid. The note with it: protein: recombinant; copies: 1;1;1; label: 5'-32P on DNA2 (target strand); blunt 35 bp.

For data set [2], the target named is T1, RPA. Briefly: EMSA; no Mg2+; reported as Kd; EMSA: 50 mM Tris-HCl pH 7.5, 100 mM NaCl, 1 mM DTT, 0.1 mg/ml BSA (oligo dsDNA only), 10 mM MgCl2 if indicated (always for plasmid), 4 C, 30 min; 10 nM dsDNA or 10 ng/ul plasmid. As to conditions: protein: recombinant; copies: 1;1;1; label: 5'-32P on DNA2 (target strand); blunt 35 bp.
The target of a further data set is YB1 (1-219) (human, UniProt P67809 1-219). As to the kind of experiment: EMSA; 10 mM Mg2+; several complexes; EMSA: 50 mM Tris-HCl pH 7.5, 100 mM NaCl, 1 mM DTT, 0.1 mg/ml BSA (oligo dsDNA only), 10 mM MgCl2 if indicated (always for plasmid), 4 C, 30 min; 10 nM dsDNA or 10 ng/ul plasmid. The note with it: protein: recombinant; label: 5'-32P on DNA2 (target strand); blunt 35 bp.
YB1 (1-219), sequence (P67809 1-219): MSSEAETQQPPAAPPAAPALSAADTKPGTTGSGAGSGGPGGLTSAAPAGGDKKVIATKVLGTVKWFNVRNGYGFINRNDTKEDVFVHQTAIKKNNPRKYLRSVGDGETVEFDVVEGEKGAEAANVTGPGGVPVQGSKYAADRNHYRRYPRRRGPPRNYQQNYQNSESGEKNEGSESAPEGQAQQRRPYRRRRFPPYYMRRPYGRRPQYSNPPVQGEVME

T1 sequence (P27694 whole entry, chain 1 of 3): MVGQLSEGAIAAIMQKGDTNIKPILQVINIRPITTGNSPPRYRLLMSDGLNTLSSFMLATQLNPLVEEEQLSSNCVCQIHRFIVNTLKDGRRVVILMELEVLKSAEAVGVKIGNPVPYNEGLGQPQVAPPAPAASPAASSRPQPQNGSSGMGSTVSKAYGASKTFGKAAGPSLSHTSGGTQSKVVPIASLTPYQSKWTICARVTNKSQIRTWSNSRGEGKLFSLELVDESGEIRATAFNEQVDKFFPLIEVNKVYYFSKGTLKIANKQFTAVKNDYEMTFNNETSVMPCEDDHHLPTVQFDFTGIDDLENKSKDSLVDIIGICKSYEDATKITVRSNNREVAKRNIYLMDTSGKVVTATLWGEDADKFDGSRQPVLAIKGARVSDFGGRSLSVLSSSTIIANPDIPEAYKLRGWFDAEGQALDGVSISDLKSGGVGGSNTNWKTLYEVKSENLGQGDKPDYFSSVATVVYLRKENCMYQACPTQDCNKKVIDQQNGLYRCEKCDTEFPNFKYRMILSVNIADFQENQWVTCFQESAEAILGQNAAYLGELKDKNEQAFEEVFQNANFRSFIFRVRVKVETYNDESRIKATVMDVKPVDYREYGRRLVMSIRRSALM
T1 sequence (P15927 whole entry, chain 2 of 3): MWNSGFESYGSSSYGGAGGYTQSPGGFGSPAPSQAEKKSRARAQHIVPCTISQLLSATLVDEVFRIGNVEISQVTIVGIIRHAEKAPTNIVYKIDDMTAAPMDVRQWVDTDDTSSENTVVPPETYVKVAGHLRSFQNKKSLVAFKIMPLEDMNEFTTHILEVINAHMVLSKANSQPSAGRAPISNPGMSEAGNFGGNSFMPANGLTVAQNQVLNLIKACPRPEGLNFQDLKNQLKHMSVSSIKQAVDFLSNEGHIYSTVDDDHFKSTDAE
T1 sequence (P35244 whole entry, chain 3 of 3): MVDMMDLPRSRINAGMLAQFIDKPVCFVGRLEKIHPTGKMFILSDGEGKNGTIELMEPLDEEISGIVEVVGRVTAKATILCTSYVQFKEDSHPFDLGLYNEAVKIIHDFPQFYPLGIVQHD
Cas9, sequence (Q99ZW2 whole entry): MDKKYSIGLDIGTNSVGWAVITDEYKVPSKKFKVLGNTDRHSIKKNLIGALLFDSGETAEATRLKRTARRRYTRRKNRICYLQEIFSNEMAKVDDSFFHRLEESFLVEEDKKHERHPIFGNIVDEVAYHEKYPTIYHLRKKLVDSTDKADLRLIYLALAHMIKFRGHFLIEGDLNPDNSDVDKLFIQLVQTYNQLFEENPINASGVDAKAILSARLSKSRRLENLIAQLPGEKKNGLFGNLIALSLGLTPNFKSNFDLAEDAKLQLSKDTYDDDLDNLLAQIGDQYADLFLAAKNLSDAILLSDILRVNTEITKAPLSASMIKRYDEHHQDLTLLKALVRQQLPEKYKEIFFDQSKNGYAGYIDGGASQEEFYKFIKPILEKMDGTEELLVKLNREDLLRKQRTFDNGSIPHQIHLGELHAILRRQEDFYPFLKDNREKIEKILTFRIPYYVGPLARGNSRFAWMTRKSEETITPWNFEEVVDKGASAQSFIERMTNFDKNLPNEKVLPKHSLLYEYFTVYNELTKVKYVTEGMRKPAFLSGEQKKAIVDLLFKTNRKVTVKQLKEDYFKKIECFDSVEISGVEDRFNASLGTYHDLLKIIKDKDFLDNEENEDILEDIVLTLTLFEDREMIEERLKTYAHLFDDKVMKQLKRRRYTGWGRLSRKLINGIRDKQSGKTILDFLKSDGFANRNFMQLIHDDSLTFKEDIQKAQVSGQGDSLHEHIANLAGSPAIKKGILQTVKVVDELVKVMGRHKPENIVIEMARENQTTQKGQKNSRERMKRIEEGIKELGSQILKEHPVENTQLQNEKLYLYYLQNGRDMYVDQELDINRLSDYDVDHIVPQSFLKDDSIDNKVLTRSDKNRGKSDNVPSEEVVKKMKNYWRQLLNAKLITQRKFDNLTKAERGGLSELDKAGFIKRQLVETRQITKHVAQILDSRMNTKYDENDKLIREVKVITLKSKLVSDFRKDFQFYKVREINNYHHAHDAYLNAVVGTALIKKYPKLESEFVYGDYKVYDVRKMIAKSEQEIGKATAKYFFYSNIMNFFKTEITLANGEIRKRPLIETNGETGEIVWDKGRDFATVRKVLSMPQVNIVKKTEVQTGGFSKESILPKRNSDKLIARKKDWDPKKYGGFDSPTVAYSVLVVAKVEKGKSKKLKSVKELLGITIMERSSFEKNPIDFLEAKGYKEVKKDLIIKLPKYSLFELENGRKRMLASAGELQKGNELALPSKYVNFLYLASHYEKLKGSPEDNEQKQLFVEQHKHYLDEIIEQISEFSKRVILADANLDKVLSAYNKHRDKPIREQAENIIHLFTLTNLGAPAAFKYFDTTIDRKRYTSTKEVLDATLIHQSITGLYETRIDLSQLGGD

B1: sgRNA (pLK1) + dsDNA1/2* (mixed)
RNA: GGAUAACUCAAUUUGUAAAAAAGUUUUAGAGCUAGAAAUAGCAAGUUAAAAUAAGGCUAGUCCGUUAUCAACUUGAAAAAGUGGCACCGAGUCGGUGCUUUU
DNA 1: CTGATAACTCAATTTGTAAAAAATGGTACTGAGCA
DNA 2: TGCTCAGTACCATTTTTTACAAATTGAGTTATCAG
On to B1, for which the “apparent K (half saturation)” value in the data set with Cas9 stood at 7.7 ± 0.4 nM.

B2: dsDNA1/2* (dsDNA)
DNA 1: B1 DNA 1
DNA 2: B1 DNA 2
As for B2, the binding result with Ku antigen (Ku70/80) and with YB1 (1-219) was “binds” in each case. In addition, the “apparent K (half saturation)” value with PARP1 is 53 ± 5 nM; in the data set with PARP2 it was 200 ± 16 nM; with RPA [1], 125 ± 40 nM; with RPA [2], 90 ± 20 nM.
